# Assay results: patent US20070185028A1, “Compositions and methods for treatment of protein misfolding and protein aggregation diseases” (priority 2004, published 2007)
# Tests used:
# [1] = target: beta amyloid (UniProt P05067); assay: cell-based or functional assay
# [2] = target: Human γD crystallin (human) (UniProt P07320); assay: cell-based or functional assay
# Human γD crystallin (human), sequence (P07320 2-174 limits assumed): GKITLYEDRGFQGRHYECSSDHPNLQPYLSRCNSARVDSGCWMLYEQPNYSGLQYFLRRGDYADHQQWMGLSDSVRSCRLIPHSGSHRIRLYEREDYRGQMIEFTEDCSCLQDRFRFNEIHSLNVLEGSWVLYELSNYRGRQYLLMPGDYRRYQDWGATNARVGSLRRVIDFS
substance,measurement,setting,value
human αB crystallin (from UniProt P02511 1-175),"Δfluorescence (Aβ), Thioflavin T, 72 h at 50° C (no chaperone: 1,324,974,048)",[1],3.18e+08
same,"Δfluorescence (γD crystallin), Thioflavin T, 72 h at 50° C (no chaperone: 888,803,840)",[2],1.08e+09
